Assay results taken from patent US20090239794A1, “HCV F PROTEIN AND USES THEREOF” (priority 2004, published 2009).

target: HLA-A*0201 on the surface of T2 cells (human); assay: T2 peptide binding assay, W6/32-FITC flow cytometry

Row | peak fluorescence, % of the level obtained with NS3 1406-1415 [%] | Binder
1 | 87.6 | VRSLVEFTCCRAGAL (modifications not checked) [F protein peptide F29-43]
2 | 83.2 | PVALGLAGAPQTPGV (modifications not checked) [F protein peptide F101-115]
3 | 79.2 | CCRAGALDWVCARRE (modifications not checked) [F protein peptide F37-51]
